# Assay results: patent publication US11213590B2, “SSTR-targeted conjugates and particles and formulations thereof” (priority 2016, dated 2022)
# Values joined by “and” are separate entries in the source; they are usually repeats but may differ in a detail not shown here. Equal entries are not always repeated. Where two headings read alike, the source gives them in different places.
# Columns and labels:
# [1] = In vivo cardiovascular and respiratory evaluation; parameters: species or system beagle dog
# Description: This study was conducted to evaluate the potential cardiovascular and respiratory effects of Conjugate 57 in conscious freely moving naïve male beagle dogs.
# Assessments of cardiovascular and respiratory effects and general toxicity were based on mortality, clinical observations, body weight, body temperature, cardiovascular evaluations, i.e., blood pressure (systolic, diastolic, and mean arterial pressures), heart rate, the ECG (QRS duration and the RR, PR, QT, and Corrected QT [QTc] intervals), and respiratory evaluations (respiratory rate, tidal volume, and minute volume). The animals were monitored continuously for at least 2 hours prior to dosing and for 24 hours post dose.
# NCI-H82 = test: cells; assay type: cell-based, human; details: for IC50: assay duration 72 h
# Description: (§1) The purpose of this study was to determine the receptor-dependent inhibition of proliferation in vitro by the somatostatin targeting conjugate Conjugate 57 and determine the sensitivity to DM1 in the human SSTR2 expressing cancer cell lines: NCI-H69, NCI-H82, NCI-H727 and HCC-33. Cells were incubated with Conjugate 57 for 6 hours, in the presence or absence of an excess of octreotide, a somatostatin analogue. A three-fold serial dilution of Conjugate 57 was used for a total of ten concentration points. After treatment, cells were washed, incubated for an additional period of time, either 72 or 96 hours and proliferation was measured using the CellTiter-Glo® Luminescent Cell Viability Assay. The IC50 of Conjugate 57 was used to determine the inhibiting activity in proliferation assays. To determine DM1 sensitivity a similar method to the Conjugate 57 assay was employed with the additional incubation time points of 30 minutes, 1, 2, and 4 hours and the exclusion of the pre-treatment with octreotide. DM1 effect from the most to least sensitive cell line was determined to be: NCI-H69>HCC-33>NCI-H82>NCI-H727 (Table 5B). […] The addition of excess octreotide (100 μM) competes with Conjugate 57 for binding to the SSTR2 receptor. […] In the NCI-H69 experiments, pre-incubation with an excess of octreotide modestly diminished the activity of Conjugate 57 by 1.6 and 2.4 fold, depending on the assay conditions. In the HCC-33 cell line, activity of Conjugate 57 was 3.2 (±1.4) times higher when dosed alone, compared to when the cells were pre-incubated with octreotide. The small but measureable changes in Conjugate 57 activity in the presence of excess octreotide seen in the NCI-H69 and HCC-33 cell lines supports the receptor dependence of the Conjugate 57 antiproliferative effect seen in vitro. In summary, although all the cell lines tested in these experiments express the SSTR2 protein, they have different levels of sensitivity to the Conjugate 57 conjugate of which the DM1 sensitivity may be a contributing factor.
# NCI-H727 = test: cells; assay type: cell-based, human; details: for IC50: assay duration 72 h
# Description: as §1
# NCI-H69 = test: cells; assay type: cell-based, human; details: for IC50: 5,000 cells/well
# Description: as §1
# SSTR5 = SSTR5 (Homo sapiens, UniProt P35346); test: Affinity profile (half-maximal inhibitory concentration), SSTR5; assay type: binding
# Chain of SSTR5 (P35346 whole entry): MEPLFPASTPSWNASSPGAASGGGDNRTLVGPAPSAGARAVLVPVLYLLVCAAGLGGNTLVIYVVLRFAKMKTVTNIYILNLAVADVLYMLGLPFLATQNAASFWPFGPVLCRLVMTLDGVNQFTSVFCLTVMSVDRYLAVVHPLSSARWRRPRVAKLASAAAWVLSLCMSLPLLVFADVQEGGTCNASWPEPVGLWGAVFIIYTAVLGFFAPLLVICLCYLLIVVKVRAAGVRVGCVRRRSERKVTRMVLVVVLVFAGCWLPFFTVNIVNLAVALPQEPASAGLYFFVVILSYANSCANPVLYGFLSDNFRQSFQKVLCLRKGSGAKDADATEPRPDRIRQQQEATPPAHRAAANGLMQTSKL
# Text: DOTATE, also known as DOTA-TATE or DOTA-octreotate, comprises an amide of the acid DOTA, which connects a radionuclide and (Tyr3)-octreotate, a derivative of octreotide. DOTATOC, also known as edotreotide, SMT487, or (DOTA^0-Phe^1-Tyr^3)octreotide, is also an octreotide derivative which can be bound to radionuclides for diagnosis and treatment.
# [2] = target: human Ether-á-go-go-Related Gene (hERG) ion channel (Homo sapiens, UniProt Q12809); test: hERG ion channel inhibition, IonWorks Quattro patch clamp; assay type: cell-based; details: IonWorks Quattro; up to 10 μM
# Chain of human Ether-á-go-go-Related Gene (hERG) ion channel (Q12809 whole entry): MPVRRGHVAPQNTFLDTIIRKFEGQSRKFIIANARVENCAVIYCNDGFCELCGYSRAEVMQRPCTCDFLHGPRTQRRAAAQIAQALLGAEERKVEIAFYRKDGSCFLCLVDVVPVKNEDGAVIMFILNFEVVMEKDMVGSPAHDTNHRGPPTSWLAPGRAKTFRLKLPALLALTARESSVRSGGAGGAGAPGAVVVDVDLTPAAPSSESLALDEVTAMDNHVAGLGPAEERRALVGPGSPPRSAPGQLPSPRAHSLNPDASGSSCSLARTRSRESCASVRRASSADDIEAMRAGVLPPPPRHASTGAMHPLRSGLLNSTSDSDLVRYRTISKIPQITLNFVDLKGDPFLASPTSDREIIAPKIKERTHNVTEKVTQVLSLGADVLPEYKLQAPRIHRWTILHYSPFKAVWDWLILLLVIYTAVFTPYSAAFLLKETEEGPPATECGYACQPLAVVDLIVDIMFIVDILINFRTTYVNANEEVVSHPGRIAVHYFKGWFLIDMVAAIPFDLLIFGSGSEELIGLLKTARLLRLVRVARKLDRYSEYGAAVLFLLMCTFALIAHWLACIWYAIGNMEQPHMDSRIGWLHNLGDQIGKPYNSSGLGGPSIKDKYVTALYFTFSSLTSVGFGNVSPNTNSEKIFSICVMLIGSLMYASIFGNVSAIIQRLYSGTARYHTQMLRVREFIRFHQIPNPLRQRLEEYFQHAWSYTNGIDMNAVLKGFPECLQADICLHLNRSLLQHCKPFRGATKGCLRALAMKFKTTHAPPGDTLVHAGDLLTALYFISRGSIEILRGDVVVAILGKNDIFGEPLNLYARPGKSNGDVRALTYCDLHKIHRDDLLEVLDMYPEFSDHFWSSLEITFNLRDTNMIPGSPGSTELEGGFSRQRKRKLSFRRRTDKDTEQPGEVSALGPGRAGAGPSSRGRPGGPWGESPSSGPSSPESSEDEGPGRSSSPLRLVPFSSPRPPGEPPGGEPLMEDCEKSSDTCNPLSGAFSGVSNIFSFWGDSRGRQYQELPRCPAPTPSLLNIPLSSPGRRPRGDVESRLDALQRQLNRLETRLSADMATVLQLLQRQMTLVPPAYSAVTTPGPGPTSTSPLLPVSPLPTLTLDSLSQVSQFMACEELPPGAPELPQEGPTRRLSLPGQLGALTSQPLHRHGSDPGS
# Description: (§2) The purpose of this study was to evaluate the potential of Conjugate 57 to prolong the QT interval via modulation of the ion channel, human Ether-á-go-go Related Gene (hERG). The potential inhibition of the ion channel activity by Conjugate 57 was tested using an IonWorks Quattro electrophysiological platform, which is an automated high-throughput patch clamp system. Conjugate 57 was tested at eight different concentrations, starting at a high concentration of 10 μM and a low concentration of 0.005 μM with a minimum of five replicates for each concentration. hERG currents were evoked by a three pulse protocol where voltage was first stepped to +40 mV for two seconds from a holding potential of −80 mV to inactivate hERG channels. The voltage is then stepped back to −50 mV for two seconds to evoke a tail current prior to returning to the holding potential for 1 second. The voltage protocol was applied (Pre), compounds added, incubated for 600 seconds, and the voltage protocol was applied a final time (Post) on the IonWorks Quattro.
# hERG = hERG (Homo sapiens, UniProt Q12809); test: as above; assay type: cell-based; details: human; all concentrations tested (0.005 μM to 10 μM); 600 seconds incubation
# Chain of hERG (Q12809 whole entry): as above
# Description: as §2
# [3] = 0.16 mg/kg iv, segment 1 (>0 to 0.25 hours post dose)
# [4] = 0.16 mg/kg iv, segment 2 (>0.25 to 6 hours post dose)
# [5] = 0.16 mg/kg iv, segment 3 (>6 to 24 hours post dose)
# [6] = 0.20 mg/kg iv, segment 1 (>0 to 0.25 hours post dose)
# [7] = 0.20 mg/kg iv, segment 2 (>0.25 to 6 hours post dose)
# [8] = 0.20 mg/kg iv, segment 3 (>6 to 24 hours post dose)
# [9] = 0.24 mg/kg iv, segment 1 (>0 to 0.25 hours post dose)
# [10] = 0.24 mg/kg iv, segment 2 (>0.25 to 6 hours post dose)
# [11] = 0.24 mg/kg iv, segment 3 (>6 to 24 hours post dose)
# [12] = 5,000 cells/well, excess octreotide (100 μM), read-out: Inhibition of Proliferation IC50 With Octreotide
# [13] = 5,000 cells/well, read-out: Inhibition of Proliferation IC50 Without Octreotide
# [14] = 10,000 cells/well, excess octreotide (100 μM), read-out: Inhibition of Proliferation IC50 With Octreotide
# [15] = 10,000 cells/well, read-out: Inhibition of Proliferation IC50 Without Octreotide
smiles,measurement,setting,value
COc1cc2cc(c1Cl)N(C)C(=O)C[C@H](OC(=O)[C@H](C)N(C)C(=O)CCSSC[C@H](NC(=O)[C@@H]1CSSC[C@H](NC(=O)[C@H](N)Cc3ccccc3)C(=O)N[C@@H](Cc3ccc(O)cc3)C(=O)N[C@H](Cc3c[nH]c4ccccc34)C(=O)N[C@@H](CCCCN)C(=O)N[C@@H]([C@@H](C)O)C(=O)N1)C(N)=O)[C@]1(C)O[C@H]1[C@H](C)[C@@H]1C[C@@](O)(NC(=O)O1)[C@H](OC)/C=C/C=C(\C)C2 [Conjugate 57],"Diastolic Blood Pressure, overall segment mean",[1]; [3],100.8 ± 4.1
same,"Mean Arterial Blood Pressure, overall segment mean",[1]; [3],124.0 ± 4.8
same,"Systolic Blood Pressure, overall segment mean",[1]; [3],162.8 ± 5.7
same,"Diastolic Blood Pressure, overall segment mean",[1]; [4],102.7 ± 1.5
same,"Mean Arterial Blood Pressure, overall segment mean",[1]; [4],128.6 ± 2.0
same,"Systolic Blood Pressure, overall segment mean",[1]; [4],172.2 ± 2.9
same,"Diastolic Blood Pressure, overall segment mean",[1]; [5],99.6 ± 1.9
same,"Mean Arterial Blood Pressure, overall segment mean",[1]; [5],125.7 ± 2.2
same,"Systolic Blood Pressure, overall segment mean",[1]; [5],169.2 ± 3.1
same,"Diastolic Blood Pressure, overall segment mean",[1]; [6],99.8 ± 4.2
same,"Mean Arterial Blood Pressure, overall segment mean",[1]; [6],122.7 ± 4.9
same,"Systolic Blood Pressure, overall segment mean",[1]; [6],161.1 ± 5.9
same,"Diastolic Blood Pressure, overall segment mean",[1]; [7],97.7 ± 1.5
same,"Mean Arterial Blood Pressure, overall segment mean",[1]; [7],122.6 ± 2.1
same,"Systolic Blood Pressure, overall segment mean",[1]; [7],165.7 ± 3.0
same,"Diastolic Blood Pressure, overall segment mean",[1]; [8],93.8 ± 1.9
same,"Mean Arterial Blood Pressure, overall segment mean",[1]; [8],119.4 ± 2.2
same,"Systolic Blood Pressure, overall segment mean",[1]; [8],163.4 ± 3.2
same,"Diastolic Blood Pressure, overall segment mean",[1]; [9],112.0 ± 4.1
same,"Mean Arterial Blood Pressure, overall segment mean",[1]; [9],138.7 ± 4.8
same,"Systolic Blood Pressure, overall segment mean",[1]; [9],182.0 ± 5.7
same,"Diastolic Blood Pressure, overall segment mean",[1]; [10],104.1 ± 1.5
same,"Mean Arterial Blood Pressure, overall segment mean",[1]; [10],129.8 ± 2.0
same,"Systolic Blood Pressure, overall segment mean",[1]; [10],176.3 ± 2.9
same,"Diastolic Blood Pressure, overall segment mean",[1]; [11],97.1 ± 1.9
same,"Mean Arterial Blood Pressure, overall segment mean",[1]; [11],123.5 ± 2.2
same,"Systolic Blood Pressure, overall segment mean",[1]; [11],171.1 ± 3.1
same,"blood pressure, heart rate and respiratory rate","[1]; 0.24 mg/kg, from dosing through 1.5 to 2 hours following dosing",statistically significant increases
same,"effects on QRS duration, ECG morphology, or tidal volume",[1]; any dose level tested,no test article-related effects
same,adverse effects on cardiovascular or respiratory function,"[1]; iv, male beagle dogs, doses up to and including 0.24 mg/kg",no adverse effects
same,"tolerability, clinical observations, mortality","[1]; single iv infusion over 6 minutes, 0.16, 0.20 and 0.24 mg/kg, male beagle dogs",generally well tolerated
same,IC50,NCI-H82; [12],0.128 µM
same,IC50,NCI-H82; [13],0.106 µM
same,IC50,NCI-H82; [14],1.29 µM
same,IC50,NCI-H82; [15],1.05 µM
same,activity in the presence of excess octreotide,NCI-H82; octreotide 100 μM,not decreased
same,IC50,NCI-H727; [12],0.81 µM
same,IC50,NCI-H727; [13],3.24 µM
same,IC50,NCI-H727; [14],1.9 µM
same,IC50,NCI-H727; [15],2.69 µM
same,activity in the presence of excess octreotide,NCI-H727; octreotide 100 μM,not decreased
same,IC50,"NCI-H69; assay duration 72 h, 6 h treatment, read-out: Inhibition of Proliferation IC50 Without Octreotide",0.108 µM
same,IC50,"NCI-H69; assay duration 72 h, excess octreotide (100 μM), read-out: Inhibition of Proliferation IC50 With Octreotide",0.258 µM
same,IC50,"NCI-H69; assay duration 96 h, 6 h treatment, read-out: Inhibition of Proliferation IC50 Without Octreotide",0.167 µM
same,IC50,"NCI-H69; assay duration 96 h, excess octreotide (100 μM), read-out: Inhibition of Proliferation IC50 With Octreotide",0.271 µM
same,decrease of activity by pre-incubation with excess octreotide,NCI-H69; depending on the assay conditions,1.6 fold and 2.4 fold
same,IC50,SSTR5,0.024 µM
same,hERG ion channel inhibition (in words),[2],did not inhibit
same,inhibition at 600 seconds,hERG,< 20%
